Experimental data: the DeepSol protein solubility set

assay: soluble on expression in E. coli; label from the status in PepcDB or PDB records

| Sequence | soluble on expression in E. coli |
| --- | --- |
| MSLHILHIASSPRGERSVSLKLASRYLETLTSLHPESTVDVLDVWTIDLLPFDGPALEAKYADLQGVQMSDEQQAVWKQIHALGERFHRADVILFSVPMWNFGVPYRLKHLIDSVSQRGVLFEFDAQGMRGLLKGKNVVVFASRGVALGEDFPTEAYDHQVAYLKTWARMVGIPTIDAVLSEATLADPATAEANFTAALAEASKLAAAVQEGHHHHHH | soluble |
| MSLHNNIDAFTLKPRHVEQIRQALPEVAITVSASDSDFMDRLPDAEYALVWVFKPEWYATAPRLKALFTPAAGRDWVAADPSGRVMTCHGSFHGRIMRESLLSMMLYFNRRLGQSLEDQGRRMWGRPDYSGCVGLFSQRVMIVGLGALGQSMAELLKAFGAHVTGVKRNPESFAGSPCVDRVISFDALEEALPEADHVVLLLPGGTATDGIFTARHFNAMRPGAYLYNLGRGNCYREEDLVAALEDGRLAGAGLDVFAEEPLPASSPLWEQRNVLITPHSSAISREYLDLFIQEWLETLRKGAPQNEGHHHHHH | not soluble |
| MSLHQFLLFKIKVPTGSMMPTVEIGDQLFVTKIYNPNNIKRGDIVVFNSDELKEPLLKRVIGLPGEHVEIKSDGSVYINGNKLEEDYVKYQGGKTDMSFDVPSGKFLMLGDNRNNSDDARYWSNPYIDGKDIEAKAQLTVYPFDRIGFVKEGHHHHHH | soluble |
| MSLHRISDRFPVHVVVWPVKVQGEGSGEEVANAIRGFNALKPGGDIARPDVLIVARGGGSLEDLWSFNDEIVVRAAAESEIPLISAVGHETDTTLIDYAADVRAPTPTGAAEMAVPVRAELEAQLSGLAARLSGSVSRQMDNRRQGVRALVRALPSLDQLLALPRRRFDEAASGLGRGLELTTLNKRRAFERSASGLRPETLLNGLKHHRQRITERMHRAETLVEREGHHHHHH | soluble |
| MSLIDRFGRPLEDLRITLTHACNFECFFCHMEGEEGDNYLLSKEDILLVAKVARKFGINSVKLTGGEPTLRRDLVEIVRGLKQLGYEDVSMTTNGFLLKDLAHKLKLAGLDRINISLHAVSRDTFKKITGVDAFDRVIEGIKSAIDVGLVPVKLNFVVNRRNREEAFKFIELSQNLGVNEIHLIELHPVGLGKLAFKEHDDLREIEEYIEKISIKKLIRKKHFRPRYVLPSGLIVEVVKPYANPIFCAGCNRIRLSVDGKLKTCLYREDNVIDVLDILKGEYSEDVKEELLGRAFMIAIAIREPNFKYKIEGHHHHHH | soluble |
| MSLIERVRTDLYRIPLPTRLTDSTHGAMMDFELITVRIEDSDGATGLGYTYTVNHGGAAVATMVDKDLRGCLLGADAEQIEKIWQSMWWRLHYAGRGGHATSAISAVDIALWDLKGIRARTPLWKLFGGYDPVVPVYAGGIDLELPVADLKTQADRFLAGGFRAIKMKVGRPDLKEDVDRVSALREHLGDSFPLMVDANMKWTVDGAIRAARALAPFDLHWIEEPTIPDDLVGNARIVRESGHTIAGGENLHTLYDFHNAVRAGSLTLPEPDVSNIGGYTTFRKVAALAEANNMLLTSHGVHDLTVHALASVPHRTYMEAHGFGLHAYMAEPMAVTDGCVSAPDRPGHGVVLDFERLGRLAVGEGHHHHHH | soluble |
| MSLIFILGIFYYLTQPLKSNSVVFIPQGSISQIITYLKQNKYQMSNIDKYILFFLGHPQSGWINIGTKDLNRAEFLHKLTIAKAALQTITLIPGETSVIFLEQAAKQLGLDKDILLKEFQAQAPYDEGVFLPETYKIPKGITENLLIQMLLNHAEISNKKTSEKIFGDYNPKKWHQYIIIASVIQKEAANDNEMPIVASVIYNRLKKGMKLQMDGTLNYGIYSHVKVTPQRIRQDNSFYNTYKFTGLPKEAVCNVSLAAIRAAIFPLKTDYLYFVRDKNTGVHIFSTNIDDHNKAINLQKGKEGHHHHHH | not soluble |
| MSLIGETINKLKVIKESSKRDKSRCKMYECLCECGEVIIVRSSTLRQGKIKSCGCESNKIHSELMRERNTTHGLSSNPMYQRWLGMKQRCYDVNAINYKNYGGRGIEICEEWKNDFKKFYDYMGDPPNENYQIDRINNDGNYEPGNVKWSTRSENSTNIRKKSTHNIYKKSNNVYNIQIVRKNKVKYFSAKSLEEAIELRDNVINKYNETGEGHHHHHH | not soluble |
| MSLIISELRHEHALRDLLRAAGMSRSTWYYNMNALKQGDRYAGLKENIRKIYHYHKGRYGYRRITLALRKQGLRINHKTVQRLMAELSLRSVIRAKKYRAWKGRTGEAAPNILSRNFGASKANEKWVTDVTEFPVQGKKLYLSSVLDLFNREVIAYSLSERPVMEMVNTMLDGAFPKLRPGDAPLLHSDQGWHYRMRSYQERLKAHGMTQSMSRKGNCLDNAVMENFFGTLKSECFYLREFRSVSALRKAVEDYIHYYNNERISLKLKGLSPVEYRTQALRAAEGHHHHHH | not soluble |
| MSLILYDYFRSTACYRVRIALNLKKIAYEKIEVHLVNNGGEQHSLQYHQINPQELVPSLDINGQILSQSMAIIDYLEEIHPEMPLLPKDPFMKATLKSMALIVACDMHPLNNLRVLNRLKEQFNANEEQVLEWYHHWLKTGFDAFEEKLGALERDKPVCFGSEVGLADVCLIPQVYNAHRFHFDMASYPIINEINEYCLTLPAFHDAAPEAISSEGHHHHHH | soluble |
| MSLINLVEKEWQEHQKIVQASEILKGQIAKVGELLCECLKKGGKILICGNGGSAADAQHFAAELSGRYKKERKALAGIALTTDTSALSAIGNDYGFEFVFSRQVEALGNEKDVLIGISTSGKSPNVLEALKKAKELNMLCLGLSGKGGGMMNKLCDHNLVVPSDDTARIQEMHILIIHTLCQIIDESF | soluble |
| MSLIPATLLLVEDDPDQRIIMQRKLQQQGYKVICAENGEEAVDLYNNNTIDLVLMDAQLPGMDGFEACFLITHTETGSRCPVMMITSLENSESVDRAFQVGAEEYVPKPIHWKVLMQRIRRQIKSRRVHQEGHHHHHH | soluble |
| MSLIPIDYLRASRKGREVRPRYLNDDKIASEVINMAKSAKTLGEFRNAVELISSDKKLVRGLAHVLEQLIEIEKIDSKLVTRTRLEVFKAASALGYPLTEEERERVFQTVAARLKMGVNEVKALFLKAYEENRLIVKAPDIQPKQLVEMYNLALIQALLFKSLYVKALLPNAPALLKGLIRAVKGLGLMYIVEINGGQLEFRFDGPVSALRQTERYGTRLAKLVPYITSAEKWEIEAQVKLGERIYVFKESGRTAPPLPKTPPHAEQFDSLVEQEFYKQVSKICHVEREPEALVVDGRVYIPDFKIGDLYVEIVGFWTPDYLKRKYEKITKVGKPLLVLVSEELAMATWKQLMPNVVVFKDRPRLSDVFKYIKPYCVNHREGHHHHHH | not soluble |
| MSLIPIVASSPSPLISGDGDDALTATAVALATTAVHAADDLKIALIYGKTGPLEAYAKQTETGLMMGLEYATKGTMTLDGRKIVVITKDDQSKPDLSKAALAEAYQDDGADIAIGTSSSAAALADLPVAEENKKILIVEPAVADQITGEKWNRYIFRTGRNSSQDAISNAVAIGKQGVTIATLAQDYAFGRDGVAAFKEALAKTGATLATEEYVPTTTTDFTAVGQRLFDALKDKPGKKIIWVIWAGGGDPLTKLQDMDPKRYGIELSTGGNILPALAAYKRLPGMEGATYYYYDIPKNPINEWLVTEHQKRFNAPPDFFTAGGFSAAMAVVTAVQKAKSTDTEKLIAAMEGMEFDTPKGKMVFRKEDHQALQSMYHFKVKVDPAVAWAVLEPVRELKIEEMNIPIKNKGIITITTDPNSSSVDKLAAALEHHHHHH | soluble |
| MSLIRGVIGYTITPFTADGTLDLDALGTSIDSLIAGGVHAIAPLGSTGEGAYLSDSEWETVVRFSQARIAGRVPSVVSVSDLTTARTVQRARLAQACGATAVMVLPISYWKLTEAEVVAHYKAVGAAIDIPIMLYNNPGTSGTDLSVELILRILGEVPNVTMVKESTGDIQRMHRLFTATDGQVAFYNGCNPLTLEALVAGATGWCTAAPNLIPALNLALWDAVQQGDLAEARALFYRQYELLEYITRRGLPTTIKAGLKMLGQDVGAPRLPLQPLDAQGSNHLKSLLEGHHHHHH | soluble |
| MSLIVSTIASHSSLQILLGAKKEGFKTRLYVSPKRRPFYSSLPIVDDLVVAEEMTSILNDDGIVVPHGSFVAYLGIEAIEKAKARFFGNRRFLKWETTFELQDKALEGAGIPRVEVVEPEDAKPDELYFVRIEGPRGGSGHFIVEGSELEERLSTLEEPYRVERFIPGVYLYVHFFYSPILERLELLGVDERVLIADGNARWPVKPLPYTIVGNRAIALRESLLPQLYDYGLAFVRTMRELEPPGVIGPFALHFAYDGSFKAIGIASRIDGGSNADHWYSELYWGERLSMGRRIARELRLAEEEDRLEEVVTEGHHHHHH | soluble |
| MSLIWKRKITLEALNAMGEGNMVGFLDIRFEHIGDDTLEATMPVDSRTKQPFGLLHGGASVVLAESIGSVAGYLCTEGEQKVVGLEINANHVRSAREGRVRGVCKPLHLGSRHQVWQIEIFDEKGRLCCSSRLTTAILEGGSHHHHHH | soluble |
| MSLIYGFIRDHSNEFAVEKMCQVLNVSRSGYYSWLNRKPGKRELTNKKLKLKIAEIYWQTRGRCGSPRIHKQLKKEGYHYNIKRIERLMRIMGLKAIQKRKFKRTTNSDNNLPLKNNLLKRNFSVTQPDKVWVSDITYIPTKEGWLYLSVVIDLYSRKVVGWSMDNHMTKRLVIDALEMAVLNRNPSRGLIFHSDRGSQYASHDFQKTLWKYGIISSMSRKGDCWDNAVAESFFATLKTELIFHNKYQSRAQAKRDIFEYIEIFYNRIRLHSSLDYKSPEDYEKERKTSKEGHHHHHH | not soluble |
| MSLKAIFWDMDGTMVDSEPQWGIATYELSEAMGRRLTPELRELTVGSSLPRTMRLCAEHAGITLSDADYERYRAGMFARVHELFDESLVPNPGVTELLTELKALEIPMLVTTNTERDLATRSVAAVGNEFFIGSIAGDEVPTAKPAPDMYLEAARRVGFDPSECLVFEDSYNGMLGAVTAGCRVIGLHPEEVQAPEGVVPLRSLHGKNSFEGVTAEMVTAWYHQIEPAGVAKEGHHHHHH | soluble |
| MSLKALVLTGTKQFEMQDVTTPTVKDDEVLVNTAYAGICGTDRALYAGLPGSADAVPPIVLGHENSGIVAAIGRNVTNVKVGDRVTVDPNIYCGECEYCRTDRPELCDNLSAVGVTRDGGLEESFTAPASVVYPIPDSVSLKAAATVEPISCAVHGVKLLDLTPYQKALVIGDGFMGQLFVQLLQAYGVHQVDFAGIVDEKLAFNKEKFGVTNTYNTTRDSIPADYDVVIEAVGLPQTQEQAVEATKKGAQVLMFGVGKPNQTFSMNTYEVYQKQLKIQGAFINPYAFEDSIALLASGQLDVESLISHEVSLEQVEDVLNGKVEHVSKAVVKVSEGHHHHHH | soluble |
| MSLKAPVDFEQEVAPLLSQRCVSCHSPNIKKGELSLAGPEDLLANGYVVPGDPAGSYLLEVVSPAGDDPAAMPKLGDALAEPEVALLRRWIEQGAVWPDGFVIREASKADRSWWSLQPLADIHPPEVAAAPAAWRQNPIDRFVWAKLSEANLKPNSPADRRTLIRRATFDLTGLPPTAEEIDTFVASDSPDAYPQLIDRMLASPRYGERWGRHWLDVIRFGESRGFERNQIITNLWPFRDYVIRSINEDKPFDQFIREHLAGDVIAPNTPQVEVGSAFLVAGPYDDVGNQDPAQAAQIRANTIDEMIRASSEAFLGLTIGCARCHDHKFDVISQRDYYAMYATFAGVKHGERAVATSEQREGHHHHHH | not soluble |
| MSLKDYRLFLIDLDGTIYRGKETIESGVRFVKRLDEAGLDYLFLTNNTTRTPQMVADKLAGHGVKTDVSKIYTPSMATASYILEKEAKRPIGVYIIGQIGLWKEILDRPEFYYDEENPDYVIVGMDTDLTYHKLMVATRCIHRGAVFIGTNSDQNLPVGKELRPGNGSICAALEVASGQKPLFIGKPEAIIVNRALDLAGVKAEEALIVGDNYPTDIMAGINSGVDTLLTLTGVTQKADLAGLTPPTYLVNDLDEFSEGHHHHHH | soluble |
